# B1: PF4: native human PF4 purified from expired platelet concentrate (protein, UniProt P02776 32-101, looked up)
# Platelet factor 4: EAEEDGDLQCLCVKTTSQVRPRHITSLEVIKAGPHCPTAQLIATLKNGRKICLDLQAPLYKKIIKKLLES
# Tested on: healthy donor platelets
# Experiment: Procoagulant platelet flow cytometry assay, healthy donor whole blood with VITT patient plasma
# Type: cell-based, human
# Details: exogenous purified human PF4 25 μg/mL, VITT positive (n=6) and negative (n=8) cases (FIG. 12A)
molecule,measurement,value
B1,effect on flow cytometry assay results,did not alter the results

# Reference: patent publication US20250264483A1, “IDENTIFICATION OF PROTHROMBOTIC CONDITIONS” (Sydney Local Health District, priority 2020, published 2025)
